The nature of data set [1]: folding stability dG unfold from chymotrypsin proteolysis; higher = more stable. In short, it runs like this: (§1)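 How resistant each design was to proteolysis was captured as K50, inferred by Bayesian fitting of sequencing counts. Unfolding free energy was then derived relative to a sequence-predicted unfolded-state K50 and a shared folded-state K50, per protease or combined. Digestion used trypsin and chymotrypsin at 11 threefold-diluted concentrations plus a no-protease condition, on mini-proteins under 80 residues without cysteine in a PA-tagged cDNA display construct. Designs were kept only when AlphaFold2 dimer inter-PAE was above 15.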

A short description of data set [2]: folding stability dG unfold (combined trypsin and chymotrypsin); higher = more stable. In a few lines:
as §1

Data set [3] can be described thus: folding stability dG unfold from trypsin proteolysis; higher = more stable. In short, it runs like this: as §1

± gives the half width of the 95% confidence interval.

“SAGGSAGGSAMTITVEVPPSVPAEEAAERVAERLRAEFPVPDIRVTVETTPDGTVTVTITEASAGGSAGGSA [r18_1_JUSTAS]”: the “folding stability dG unfold” value in data set [1] was 0.436 ± 0.09 kcal/mol; in data set [2], 0.275 ± 0.1 kcal/mol; in data set [3], -0.291 ± 0.16 kcal/mol.
Consider “SAGGSAGGSAMTLNVPDAGGKTYTVEVLSYDPVKNTWTLLNPSTSETITITAEEAAKIKAAASAGGSAGGSA [r18_161_JUSTAS]”, for which the “folding stability dG unfold” value in data set [1] was 2.01 ± 0.066 kcal/mol; in data set [2], 2.1 ± 0.11 kcal/mol; in data set [3], 2.01 ± 0.072 kcal/mol.
Consider “SAGGSAGGSAMTLRVKITLPDGRELELEIEAETEEEALAALKELIKKLFPEVKEVKIEVEPESAGGSAGGSA [r18_434_TrROS_Hall]”, for which the “folding stability dG unfold” value in data set [1] amounted to 4.85 ± 0.38 kcal/mol; in data set [2] it was 4.84 ± 0.4 kcal/mol; in data set [3] it was 3.91 ± 0.3 kcal/mol.
For “SAGGSAGGSAMTPQVIKVTLYKPATGDVRTVVVLDPVPNTSLDEVAAALPSDYVVAKVEVGSAGGSAGGSAG [r3_80_TrMRF]” the same measures were -0.308 ± 0.33 kcal/mol, -0.0325 ± 0.14 kcal/mol and 0.166 ± 0.079 kcal/mol.
“SAGGSAGGSAMTPVTIKVTLTNPATGSTTTKTIYVPEPNPSVEEIKKKLPSDWTVTSITLSSAGGSAGGSAG [r3_80_JUSTAS]”: the “folding stability dG unfold” value in data set [1] amounted to 0.828 ± 0.16 kcal/mol; in data set [2], 1.07 ± 0.16 kcal/mol; in data set [3], 1.23 ± 0.045 kcal/mol.
For the sequence “SAGGSAGGSAMTTTSTSTYPDSITTTTTTTVDGTYIITTTTFYPATGTTTTTTTTLPPSLTSAGGSAGGSAG [r3_316_JUSTAS]”, the “folding stability dG unfold” value came to 1.987 ± 0.011 kcal/mol in data set [1], 2.41 ± 0.048 kcal/mol in data set [2] and 2.91 ± 0.093 kcal/mol in data set [3].
The corresponding values for “SAGGSAGGSAMTVLVMEIKIELRVNEDGSLELRMEIEIKPVEPITLEELAEKLGLSKEELLSAGGSAGGSAG [r3_338_TrROS_Hall]” are 2.91 ± 0.085 kcal/mol, 3.03 ± 0.14 kcal/mol and 3.28 ± 0.12 kcal/mol.
Turning to “SAGGSAGGSAMTVRFGKPEELEKAEELAEEIAKAHPGKPIKVTVTKDPNNPDEYTVTITEESAGGSAGGSAG [r3_131_JUSTAS]”, the results for the “folding stability dG unfold” value in data set [1], in data set [2] and in data set [3] were 0.544 ± 0.09 kcal/mol, 0.289 ± 0.14 kcal/mol and -0.24 ± 0.16 kcal/mol, respectively.
Regarding “SAGGSAGGSAMTVRIEFEDGSVKEIPAEEFSEDFIKALPKKYKVSEYPEPPLDNNKSNILKSAGGSAGGSAG [r3_69_JUSTAS]”, the “folding stability dG unfold” value in data set [1] was 0.697 ± 0.085 kcal/mol; in data set [2], 0.431 ± 0.091 kcal/mol; in data set [3] it was -0.0131 ± 0.059 kcal/mol.
For “SAGGSAGGSAMVITKTTASVEEVKEEIKKEYPNANVKITKVSTSADGKTTYKIEIKIPKNNKSAGGSAGGSA [r18_464_JUSTAS]”, the “folding stability dG unfold” value in data set [1] was found to be 2.5 ± 0.033 kcal/mol; in data set [2], 2 ± 0.16 kcal/mol; in data set [3], 0.586 ± 0.067 kcal/mol.
For “SAGGSAGGSAMVTIAFPDGTVVEIPASLSEEEVEAEAERLAKERAAGVRPVDVTVESIEPPGSAGGSAGGSA [r18_213_JUSTAS]” the same measures were 1.43 ± 0.062 kcal/mol, 1.07 ± 0.069 kcal/mol and 0.356 ± 0.035 kcal/mol.
As to “SAGGSAGGSAMVVEVPVEFPDDVKVYSVEEDPELGVLLVKVKFPDREVLAVIPGDKLFIADASAGGSAGGSA [r18_212_TrMRF]”, the “folding stability dG unfold” value turned out to be 0.325 ± 0.089 kcal/mol in data set [1], 0.422 ± 0.052 kcal/mol in data set [2] and 0.43 ± 0.016 kcal/mol in data set [3].
The corresponding values for “SAGGSAGGSAMVVPRTYRVPPGLTVEEVADYLRAKDPNVIDATAERRPDGYLLVTVLVRLDSAGGSAGGSAG [r3_371_TrMRF]” are 2.07 ± 0.079 kcal/mol, 1.69 ± 0.17 kcal/mol and 1.21 ± 0.068 kcal/mol.
Take “SAGGSAGGSAMWVIRIWFPNGNKRTIPIPPNEKLTAEEILDEFRIPNGREMRILRVEIWPYSAGGSAGGSAG [r3_465_TrROS]”: the figures for the “folding stability dG unfold” value in data set [1], in data set [2] and in data set [3] were 2.66 ± 0.034 kcal/mol, 2.43 ± 0.042 kcal/mol and 1.967 ± 0.011 kcal/mol, respectively.
The corresponding values for “SAGGSAGGSAMYKVTIEIPETGKIYTFTHPGTAEEALAAALPEIGVSKEKIKKITVTPTEESAGGSAGGSAG [r3_79_JUSTAS]” are 1.36 ± 0.11 kcal/mol, 0.994 ± 0.11 kcal/mol and 0.312 ± 0.079 kcal/mol.
The corresponding values for “SAGGSAGGSANVKLKIDLDPGYGYIKIKLEWEDPGTGNKQEMEITIPIPIPPPPPPPANDKKSAGGSAGGSA [r18_361_TrROS]” are 2.17 ± 0.11 kcal/mol, 1.93 ± 0.43 kcal/mol and 1.12 ± 0.11 kcal/mol.
“SAGGSAGGSANWKEIDGTLPWGLRVKVWVSPGNGQLMIEIKPVPPPPPPKISPEDADKANADSAGGSAGGSA [r18_236_TrROS]”: the entries for the “folding stability dG unfold” value in data set [1], in data set [2] and in data set [3] were 4.06 ± 0.13 kcal/mol, 3.39 ± 0.3 kcal/mol and 2.31 ± 0.072 kcal/mol, respectively.
The corresponding values for “SAGGSAGGSANWYIRIHSPNGQPIWFPMKIKNVTPKGGEIEFKMRNPNGREMPFRVEIFPLESAGGSAGGSA [r18_163_TrROS]” are 1.16 ± 0.22 kcal/mol, 0.981 ± 0.13 kcal/mol and 0.752 ± 0.13 kcal/mol.
Take “SAGGSAGGSAPDVEVEPFTLPSGEEAVAFRLPDGSRVVLVGDKAVLFYKDGKVEEVPLEEILSAGGSAGGSA [r18_379_TrMRF]”: the “folding stability dG unfold” value worked out at 1.78 ± 0.1 kcal/mol in data set [1], 1.76 ± 0.13 kcal/mol in data set [2] and 1.46 ± 0.042 kcal/mol in data set [3].
Consider “SAGGSAGGSAPLPPLTPEQVKALVEELKKKGYKVKKVTVVEVNGELYVFVEVDGKLYRIKVSAGGSAGGSAG [r3_395_TrROS_Hall]”, for which the “folding stability dG unfold” value in data set [1] came to 4.47 ± 0.12 kcal/mol; in data set [2] it was 4.23 ± 0.064 kcal/mol; in data set [3], 3.47 ± 0.069 kcal/mol.
For “SAGGSAGGSAPLSLVIDFPSGPATITFLEDGTARITYTDDDKTETIPVADLLKIPADVDPRSAGGSAGGSAG [r3_256_TrMRF]”, the “folding stability dG unfold” value worked out at 0.769 ± 0.12 kcal/mol in data set [1], 0.507 ± 0.091 kcal/mol in data set [2] and 0.0215 ± 0.099 kcal/mol in data set [3].
The corresponding values for “SAGGSAGGSAPMEIWVLIDSPEKAKDLAKEIAHELQQSGIKIKVEVEQPPNGYYLVKIRFDSAGGSAGGSAG [r3_211_TrROS]” are 1.81 ± 0.11 kcal/mol, 1.91 ± 0.22 kcal/mol and 1.89 ± 0.14 kcal/mol.
With “SAGGSAGGSAPPDEGQKWVPVTFPIEFPLPDGNKVKIPIDFWYPKEDGKPIAMQIEWWAKNSAGGSAGGSAG [r3_484_TrROS]”, the results for the “folding stability dG unfold” value in data set [1], in data set [2] and in data set [3] were 1.42 ± 0.22 kcal/mol, 0.72 ± 0.26 kcal/mol and 0.373 ± 0.13 kcal/mol, respectively.
“SAGGSAGGSAPPNLKIEIDLQRHPEDDHIFLEMEATYPDDGKELKVMIMINPDDGKIGIMIMSAGGSAGGSA [r18_383_TrROS]”: the “folding stability dG unfold” value in data set [1] was 3.7 ± 0.29 kcal/mol; in data set [2], 3.34 ± 0.29 kcal/mol; in data set [3], 2.76 ± 0.22 kcal/mol.
The corresponding values for “SAGGSAGGSAPPRRVTIEYDPDSGMFKVKVPGGKEREIEGMPPNQIEEQAKDYGIDRVEIVSAGGSAGGSAG [r3_78_TrROS]” are -0.286 ± 0.41 kcal/mol, -0.0794 ± 0.18 kcal/mol and 0.205 ± 0.16 kcal/mol.
For “SAGGSAGGSAPPWTRVLGLGTFPPGVPDLPVEVPGGNVYALFTPTEDGSVQVLIVDLIPPLSAGGSAGGSAG [r3_464_TrMRF]” the same measures were 0.965 ± 0.21 kcal/mol, 0.773 ± 0.17 kcal/mol and 0.472 ± 0.1 kcal/mol.
The corresponding values for “SAGGSAGGSAPVLVLETESGVKFETLSLGPGPGALALIVTPDKPALALINLDDPNNIKILASAGGSAGGSAG [r3_450_TrMRF]” are 0.799 ± 0.11 kcal/mol, 1.18 ± 0.1 kcal/mol and 1.55 ± 0.045 kcal/mol.

The record behind these values is the supplement of paper PMC12764529.
